Patent publication US9168297B2, “Regulation of skin pigmentation by neuregulin-1 (NRG-1)” (The United States of America, as Represented by the …, priority 2010, dated 2015)

How the values were obtained:
Assay type in all cases: cell-based, human
[1] = tested on: HEM-LP melanocytes; assay: Melanin content assay (melanin/protein); conditions: NRG-1 50 ng/ml
Method: FIGS. 6A and 6B are bar graphs illustrating the effect of NRG-1 on the pigmentation of cultured human melanocytes. FIG. 6A) Lightly-pigmented (HEM-LP) and FIG. 6B) Darkly-pigmented (HEM-DP) melanocytes were treated with or without NRG-1 (50 ng/ml) for 1, 3, 5 or 9 days and proteins were extracted from each sample. After centrifugation at 10,000 g for 15 minutes, precipitates were analyzed for melanin content, and the supernatants were analyzed for protein content. Results are the average of three studies±SD; statistically significant differences are indicated.
Melanin contents were determined by dissolving cell pellets overnight at room temperature in 200 μl 1 N NaOH, and melanin concentrations were quantitated by absorbance at 405 nm in a SpectraMax 250 ELISA reader (Molecular Devices) using a standard curve generated from synthetic melanin (Sigma-Aldrich, St. Louis, Mo.). Melanin content is expressed as μg melanin per μg protein. Each study was repeated at least three times.
The effects of NRG-1 on the pigmentation of human melanocytes were also examined. […] However, on day 9, when the cells had reached confluence, the pigmentation level of NRG-1-treated HEM-LP melanocytes was about 35% higher than the control (FIG. 6A).

[2] = tested on: ERBB2 mRNA; assay: ERBB2 mRNA level by RT-PCR in melanocytes; conditions: HEM-LP and HEM-DP, NRG-1 50 ng/ml, 1 day, vs controls
Method: FIGS. 8A and 8B are digital images illustrating the mechanism of ERBB2 abrogation after NRG-1 treatment. FIG. 8A) ERBB2 mRNA levels in HEM-LP and in HEM-DP melanocytes were detected by RT-PCR after treatment with or without NRG-1 (50 ng/ml) for 1 day. FIG. 8B) MG132 (120 nM) was added to the melanocyte culture medium to inhibit proteasomal degradation during treatment of HEM-LP and HEM-DP melanocytes with or without NRG-1 (50 ng/ml). Proteins were extracted for each sample, and ERBB2 levels were detected by western blotting. Results are representative of three studies.
Total RNAs were isolated from cells using an RNeasy mini kit (Qiagen, Valencia, Calif.), and 500 ng RNA of each sample was used for reverse transcription. […]
Whether the decrease in ERBB2 level elicited by NRG-1 was due to transcriptional regulation or to proteasomal degradation was further explored. When ERBB2 mRNA levels were measured after 1 day of treatment with NRG-1, NRG-1 treated cells and controls were similar both for HEM-LP and for HEM-DP melanocytes (FIG. 8A) despite the marked decrease in ERBB2 protein expression noted above.

[3] = tested on: ERBB3; assay: ERBB3 protein level by western blotting in melanocytes; conditions: NRG-1 50 ng/ml, 5 days
Method: (§1) FIGS. 7A and 7B are digital images illustrating expression of ERBBs after NRG-1 treatment. FIG. 7A) HEM-LP and HEM-DP melanocytes were treated with or without NRG-1 (50 ng/ml) for 5 days, and levels of ERBB2, ERBB3 or ERBB4 were detected by western blotting. Results shown are representative of three studies. FIG. 7B) Expression of ERBB2 was examined in HEM-LP and in HEM-DP melanocytes after 1 or 9 days or treatment with NRG-1 compared to vehicle-treated controls; the results are representative of two independent studies.
(§2) Fibroblast cultures in 100-mm dishes were solubilized in appropriate volumes of M-PER mammalian protein extraction reagent (Pierce Biotechnology, Rockford, Ill.) containing a Protease Inhibitor mixture (Roche, Mannheim, Germany) and phosphatase inhibitors. The protein concentration of each extract was measured using a BCA protein assay kit (Pierce, Rockford, Ill.). Cell extracts (20 μg) were separated on 8-16% gradient SDS polyacrylamide gels (Invitrogen, Carlsbad, Calif.), after which proteins were transferred to PVDF membranes (Invitrogen, Carlsbad, Calif.). […] Antigen-antibody complexes were detected using an ECL-plus Western blotting detection system (GE Healthcare). […]

[4] = tested on: ERBB4; assay: ERBB4 protein level by western blotting in melanocytes; conditions: HEM-LP and HEM-DP, NRG-1 50 ng/ml, 5 days
Method: as §1, §2

B1: NRG-1: commercially available recombinant human neuregulin-1 (rhNRG-1-β1, R&D Systems), SEQ ID NO: 11 (protein)
chain: TSHLVKCAEKEKTFCVNGGECFMVKDLSNPSRYLCKCPNEFTGDRCQNYVMASFYKHLGIEFMEAEELYQK
- Pigmentation level higher than the control ([1]; day 9, confluent): about 35%
- Level of pigmentation (melanin/protein) ([1]; days 1 through 5, subconfluent, vs control): not significantly different
- ERBB2 mRNA levels [2]: similar
- ERBB3 expression level ([3]; HEM-DP): not affected
- ERBB3 expression level ([3]; HEM-LP): no detectable change
- Levels of ERBB4 expression [4]: did not change
